Data taken from PMC6581707.

How the values were obtained:
[1] = biological target: CS/DS 4-O-endosulfatase endoVB4SF from Vibrio sp. FC509 (Vibrio sp. FC509); experiment: SEC; Superdex 200 10/300 GL, 10 mM Tris-HCl, 100 mM NaCl, pH 8.0, with or without 5 mM DTT; detection at 280 nm; monomer to dimer
[2] = biological target: exoPB4SF-Q5C mutant (Photobacterium sp. FC615); experiment: as above

| Substance | stoichiometry N [1] | stoichiometry N [2] |
| --- | --- | --- |
| CS/DS 4-O-endosulfatase endoVB4SF from Vibrio sp. FC509 (enzyme) | 2 | – |
| exoPB4SF-Q5C mutant (enzyme) | – | 2 |
